US10662235B2, “Cysteine engineered fibronectin type III domain binding molecules” (Janssen Biotech, Inc., priority 2016, dated 2020)
Changes are numbered by the printed parent chain. Names and notes keep the numbering of the source.

B1: N6C (protein)
chain: LPAPKCLVVSEVTEDSARLSWDDPWAFYESFLIQYQESEKVGEAIVLTVPGSERSYDLTGLKPGTEYTVSIYGVHNVYKDTNMRGLPLSAIFTT
B2: T93C (protein)
chain 1: MLPAPKNLVVSEVTEDSARLSWDDPWAFYESFLIQYQESEKVGEAIVLTVPGSERSYDLTGLKPGTEYTVSIYGVHNVYKDTNMRGLPLSAIFCT
chain 2: B1 chain with C6N, T93C
modifications: EGFR binding FN3 domain; EGFR-binding FN3 domain
B3: V8C (protein)
chain 1: B2 chain 1 with V9C, C94T
chain 2: B1 chain with C6N, V8C
modifications: EGFR binding FN3 domain; EGFR-binding FN3 domain
B4: S10C (protein)
chain 1: B2 chain 1 with S11C, C94T
chain 2: B1 chain with C6N, S10C
modifications: EGFR binding FN3 domain; EGFR-binding FN3 domain
B5: S16C (protein)
chain 1: B2 chain 1 with S17C, C94T
chain 2: B1 chain with C6N, S16C
modifications: EGFR binding FN3 domain; EGFR-binding FN3 domain
B6: S20C (protein)
chain 1: B2 chain 1 with S21C, C94T
chain 2: B1 chain with C6N, S20C
modifications: EGFR binding FN3 domain; EGFR-binding FN3 domain
B7: S30C (protein)
chain 1: B2 chain 1 with S31C, C94T
chain 2: B1 chain with C6N, S30C
modifications: EGFR binding FN3 domain; EGFR-binding FN3 domain
B8: S38C (protein)
chain 1: B2 chain 1 with S39C, C94T
chain 2: B1 chain with C6N, S38C
modifications: EGFR binding FN3 domain; EGFR-binding FN3 domain
B9: V41C (protein)
chain 1: B2 chain 1 with V42C, C94T
chain 2: B1 chain with C6N, V41C
modifications: EGFR binding FN3 domain; EGFR-binding FN3 domain
B10: T48C (protein)
chain 1: B2 chain 1 with T49C, C94T
chain 2: B1 chain with C6N, T48C
modifications: EGFR binding FN3 domain; EGFR-binding FN3 domain
B11: R54C (protein)
chain 1: B2 chain 1 with R55C, C94T
chain 2: B1 chain with C6N, R54C
modifications: EGFR binding FN3 domain; EGFR-binding FN3 domain
B12: P114AR7P92-G8: c-Met-binding FN3 domain, SEQ ID NO: 36 (protein)
chain: LPAPKNLVVSRVTEDSARLSWTAPDAAFDSFVIRYFEFLGSGEAIVLTVPGSERSYDLTGLKPGTEYVVQILGVKGGYISIPLSAIFTT
modifications: c-Met binding FN3 domain
B13: P114AR7P92-H5: c-Met-binding FN3 domain, SEQ ID NO: 37 (protein)
chain: B12 chain with V32W, F36L, G40L, S41G, L72M, Y78T, I79V, I81P
modifications: c-Met binding FN3 domain
B14: P114AR7P93-G8: c-Met-binding FN3 domain, SEQ ID NO: 39 (protein)
chain: B12 chain with V32W, G60D, V68G, Q70T, L72N, Y78R, I79V, I81T
modifications: c-Met binding FN3 domain
B15: P114AR7P93-H9: c-Met-binding FN3 domain, SEQ ID NO: 40 (protein)
chain: B12 chain with V32W, L72I, Y78H, I81L
modifications: c-Met binding FN3 domain
B16: P114AR7P94-A3: c-Met-binding FN3 domain, SEQ ID NO: 41 (protein)
chain: B12 chain with V32W, Q70N, L72M, Y78K, I81P
modifications: c-Met binding FN3 domain
B17: P114AR7P94-E5: c-Met-binding FN3 domain, SEQ ID NO: 42 (protein)
chain: B12 chain with V32W, V68A, Q70N, L72M, Y78R, I79V, I81V
modifications: c-Met binding FN3 domain
B18: P114AR7P95-D4: c-Met-binding FN3 domain, SEQ ID NO: 45 (protein)
chain: B12 chain with V32W
modifications: c-Met binding FN3 domain
B19: P114AR7P95-F10: c-Met-binding FN3 domain, SEQ ID NO: 47 (protein)
chain: B12 chain with V32W, L39T, G40T, S41A, Q70N, L72M, Y78S, I81P
modifications: c-Met binding FN3 domain
B20: P114AR7P95-G7: c-Met-binding FN3 domain, SEQ ID NO: 48 (protein)
chain: B12 chain with V32W, F38L, G40S, S41T, Q70N, L72M, Y78S, I81P
modifications: c-Met binding FN3 domain
B21: P114AR7P95-H8: c-Met-binding FN3 domain, SEQ ID NO: 49 (protein)
chain: B12 chain with V32W, L39V, G40S, S41K, Q70N, L72M, Y78S, I81P
modifications: c-Met binding FN3 domain
B22: P114AR5P74-A5: c-Met-binding FN3 domain, SEQ ID NO: 32 (protein)
chain: B12 chain with V32W, F36D, F38V, L39V, G40V, S41G, V68Y, Q70N, Y78S, I81V
modifications: c-Met binding FN3 domain
B23: P114AR7P92-F6: c-Met-binding FN3 domain, SEQ ID NO: 35 (protein)
chain: B12 chain with V32W, Q70N, Y78G, I79L, I81V
modifications: c-Met binding FN3 domain
B24: E53C (protein)
chain: B2 chain 1 with E54C, C94T
modifications: EGFR binding FN3 domain

System: not listed separately
Assay: Analytical size exclusion chromatography (aggregation state, percent monomer)
Type: physicochemical
Conditions: NEM-conjugated cysteine variants; SEC, Abs280
Protocol: Size exclusion chromatography was used to determine the aggregation state of the FN3 domains binding EGFR. Aliquots (10 μL) of each purified FN3 domain were injected onto a Superdex 75 5/150 column (GE Healthcare) at a flow rate of 0.3 mL/min in a mobile phase of PBS pH 7.4. Elution from the column was monitored by absorbance at 280 nm.
The percent monomer for each protein was determined by integrating the Abs280 signal and comparing the peak in the monomer region (5.5-6 minutes) to the peaks in the oligomer region (4-5.3 minutes).

**Q.** With B1 as the molecule, how does the Percent monomer read?
**A.** 94%

**Q.** With B2 as the molecule, how does the Percent monomer read?
**A.** 100%

**Q.** Which Percent monomer does the source give for B3 here?
**A.** 91%

**Q.** With B4 as the molecule, how does the Percent monomer read?
**A.** 80%

**Q.** With B5 as the molecule, how does the Percent monomer read?
**A.** 75%

**Q.** With B6 as the molecule, how does the Percent monomer read?
**A.** 94%

**Q.** With B7 as the molecule, how does the Percent monomer read?
**A.** 94%

**Q.** For B8, which Percent monomer is on record?
**A.** 93%

**Q.** For B9, which Percent monomer is on record?
**A.** 98%

**Q.** For B10, which Percent monomer is on record?
**A.** 90%

**Q.** For B11, which Percent monomer is on record?
**A.** 96%

System: not listed separately
Assay: Thermal stability by differential scanning calorimetry
Type: physicochemical
Conditions: c-Met-binding FN3 domains, DSC in PBS
Protocol: The thermal stability of cysteine-NEM conjugates was assessed by differential scanning calorimetry (DSC). The only the conjugates tested were those determined to express at high levels, conjugate efficiently, and retain EGFR binding. Additionally, cysteine variants within the BC and FG loops were excluded. Stability data was generated by heating a 400 μL aliquot of the variant from 25° C. to 100° C. at a scan rate of 1° C. per minute in a VP-DSC instrument (MicroCal). A second identical scan was completed on the sample in order to assess the reversibility of thermal folding/unfolding. Data was fitted to a 2-state unfolding model in order to calculate the melting temperature (Table 10).
Thermal Stability of c-Met-Binding FN3 Domains Differential scanning calorimetry in PBS was used to assess the stability of each FN3 domain.

**Q.** With B12 as the molecule, how does the “Thermal Stability (Tm, C.)” value read?
**A.** 90.9 C.

**Q.** Which “Thermal Stability (Tm, C.)” value does the source give for B13 here?
**A.** 87 C.

**Q.** With B14 as the molecule, how does the “Thermal Stability (Tm, C.)” value read?
**A.** 76.8 C.

**Q.** With B15 as the molecule, how does the “Thermal Stability (Tm, C.)” value read?
**A.** 88.2 C.

**Q.** With B16 as the molecule, how does the “Thermal Stability (Tm, C.)” value read?
**A.** 86.2 C.

**Q.** With B17 as the molecule, how does the “Thermal Stability (Tm, C.)” value read?
**A.** 80 C.

**Q.** For B18, which “Thermal Stability (Tm, C.)” value is on record?
**A.** 85.3 C.

**Q.** With B19 as the molecule, how does the “Thermal Stability (Tm, C.)” value read?
**A.** 85.2 C.

**Q.** With B20 as the molecule, how does the “Thermal Stability (Tm, C.)” value read?
**A.** 87.2 C.

**Q.** Which “Thermal Stability (Tm, C.)” value does the source give for B21 here?
**A.** 83 C.

**Q.** For B22, which “Thermal Stability (Tm, C.)” value is on record?
**A.** 74.1 C.

**Q.** With B23 as the molecule, how does the “Thermal Stability (Tm, C.)” value read?
**A.** 76.8 C.

Same assay, conditions: cysteine-NEM conjugates, DSC 25-100° C., 1° C. per minute

**Q.** With B1 as the molecule, how does the “First Scan Tm” value read?
**A.** 71 °C

**Q.** For B2, which “First Scan Tm” value is on record?
**A.** 69 °C

**Q.** For B3, which “First Scan Tm” value is on record?
**A.** 69 °C

**Q.** For B4, which “First Scan Tm” value is on record?
**A.** 68 °C

**Q.** Which “First Scan Tm” value does the source give for B5 here?
**A.** 68 °C

**Q.** Which “First Scan Tm” value does the source give for B6 here?
**A.** 70 °C

**Q.** For B7, which “First Scan Tm” value is on record?
**A.** 71 °C

**Q.** For B8, which “First Scan Tm” value is on record?
**A.** 65 °C

**Q.** Which “First Scan Tm” value does the source give for B9 here?
**A.** 71 °C

**Q.** For B10, which “First Scan Tm” value is on record?
**A.** 72 °C

**Q.** With B11 as the molecule, how does the “First Scan Tm” value read?
**A.** 65 °C

Same assay, conditions: cysteine-NEM conjugates, second identical scan

**Q.** With B1 as the molecule, how does the “Second Scan Tm” value read?
**A.** 70 °C

**Q.** With B2 as the molecule, how does the “Second Scan Tm” value read?
**A.** 69 °C

**Q.** Which “Second Scan Tm” value does the source give for B3 here?
**A.** 69 °C

**Q.** Which “Second Scan Tm” value does the source give for B4 here?
**A.** 68 °C

**Q.** For B5, which “Second Scan Tm” value is on record?
**A.** 68 °C

**Q.** For B6, which “Second Scan Tm” value is on record?
**A.** 70 °C

**Q.** Which “Second Scan Tm” value does the source give for B7 here?
**A.** 71 °C

**Q.** With B8 as the molecule, how does the “Second Scan Tm” value read?
**A.** 65 °C

**Q.** With B9 as the molecule, how does the “Second Scan Tm” value read?
**A.** 71 °C

**Q.** For B10, which “Second Scan Tm” value is on record?
**A.** 72 °C

**Q.** Which “Second Scan Tm” value does the source give for B11 here?
**A.** 65 °C

System: H1573 cells
Assay: Cytotoxicity assay of cytotoxin conjugates in H1573 cells
Type: cell-based, human
Conditions: MMAF conjugates
Protocol: Cell killing was assessed by measuring viability of the EGFR-overexpressing human tumor cell line H1573 following exposure to the cysteine variant-cytotoxin conjugates. […] Cells were allowed to attach overnight at 37° C. in a humidified 5% CO2 atmosphere. Medium was aspirated from 96-well plate and cells were treated with 50 uL of fresh media and 50 uL of 2× inhibitor made up in fresh media. Cell viability was determined by an endpoint assay with Cell TiterGlo (Promega) at 70 hours. IC50 values were determined by fitting data to the equation for a sigmoidal dose response with variable slope using GraphPad Prism 5 (GraphPad Software).
Conjugates consisting of ECB147 cysteine variants, 83v2-cys, or Tencon-cys linked to a cytotoxic tubulin inhibitor from the auristatin family (FIG. 2) were tested for target-dependent cytotoxicity in cancer cells. The inhibitor was linked to the cysteine-containing protein via a non-cleavable PEG4 linker or an enzyme-cleavable valine-citrulline or valine-lysine linker.

**Q.** Which “IC50 relative to parent conjugate” value does the source give for B1 here?
**A.** over two times more potent than the parent

**Q.** With B24 as the molecule, how does the “IC50 relative to parent conjugate” value read?
**A.** over two times more potent than the parent

**Q.** With B2 as the molecule, how does the “IC50 relative to parent conjugate” value read?
**A.** over two times more potent than the parent

Same assay, conditions: MMAF conjugates, Cell TiterGlo at 70 hours, read-out: IC50 (cell killing)

**Q.** Which IC50 does the source give for B1 here?
**A.** 0.16 nM

**Q.** Which IC50 does the source give for B2 here?
**A.** 0.2 nM

**Q.** With B3 as the molecule, how does the IC50 read?
**A.** 0.35 nM

**Q.** Which IC50 does the source give for B4 here?
**A.** 0.43 nM

**Q.** For B5, which IC50 is on record?
**A.** 0.75 nM

**Q.** With B6 as the molecule, how does the IC50 read?
**A.** 0.36 nM

**Q.** Which IC50 does the source give for B7 here?
**A.** 0.78 nM

**Q.** With B8 as the molecule, how does the IC50 read?
**A.** 0.76 nM

**Q.** For B9, which IC50 is on record?
**A.** 1.13 nM

**Q.** Which IC50 does the source give for B10 here?
**A.** 0.59 nM

**Q.** With B11 as the molecule, how does the IC50 read?
**A.** 0.37 nM
